Test results reported in publication PMC6805997 (mBio, 2019).
Residue numbers refer to the chain shown, from its start.

Tests used:
[1] = target: T1, recombinant IsdB (iron-regulated surface determinant protein B), without signal peptide and sorting signal (Staphylococcus aureus, UniProt A6QG30); assay: BLI; details: both partners purified
T1 construct: source: E. coli BL21(DE3), pET15b, purified (HiTrap Talon column)

[2] = target: T1, recombinant IsdB (iron-regulated …); assay: ELISA; details: both partners purified

T1 sequence (A6QG30 41-613): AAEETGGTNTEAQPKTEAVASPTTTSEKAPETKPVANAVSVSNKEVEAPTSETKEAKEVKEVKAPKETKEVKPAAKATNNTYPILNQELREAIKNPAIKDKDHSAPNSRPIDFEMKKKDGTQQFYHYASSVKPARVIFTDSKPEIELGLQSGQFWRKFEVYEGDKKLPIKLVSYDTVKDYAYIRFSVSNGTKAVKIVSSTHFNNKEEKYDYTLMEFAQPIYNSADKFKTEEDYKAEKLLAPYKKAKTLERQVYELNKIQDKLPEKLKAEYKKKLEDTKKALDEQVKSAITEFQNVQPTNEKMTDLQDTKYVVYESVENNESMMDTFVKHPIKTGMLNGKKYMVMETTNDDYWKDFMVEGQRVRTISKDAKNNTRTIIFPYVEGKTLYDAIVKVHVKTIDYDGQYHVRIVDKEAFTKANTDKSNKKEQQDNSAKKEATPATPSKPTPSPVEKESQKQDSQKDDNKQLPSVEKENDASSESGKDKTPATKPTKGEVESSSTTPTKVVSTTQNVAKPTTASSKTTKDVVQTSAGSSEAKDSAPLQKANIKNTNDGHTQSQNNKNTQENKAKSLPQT

B1: STAU-229 clonal variant 3 (recombinant mAb) (antibody, V domains shown)
VH: EVQLVQSGAEVKKPGATVKIPCQVSGYTFTDYYIHWVQQAPGKGLEWMGLVDPEDGETRYAEKFQGRVTITADTSTDTAYMEMSSLTSEDAAVYYCAKPHCTTSSCQRVSGYYFGMDVWGQGTTVTVSS
VL: QSALTQPPSASGSPGQSVTISCTGSSNDVGDYNFVSWYQQHPGKPPKLMIYEVTKRPSGVPDRFFGSKSGNTASLTVSGLQADDEADYYCSSYAGGNSVVFGGGTKLTVL
notes: source: expressed recombinantly with the original light chain and purified
Q: With B1 as the binder, how does the Kd [1] read?
A: 1.44 nM

Q: And the “fold lower avidity than the hybridoma IgG” value [1]?
A: ~7 times

B2: STAU-229 mAb (hybridoma cell line-expressed IgG) (antibody, V domains shown)
VH: EVQLVQSGAEVKKPGATMKISCKVSGYPFTDYYMHWVQQAPGKGLEWMGLIDPEDGETNYAEKFQGRVTITADTSTDTVYMELSSLRSEDTAVYFCAKPHCSSRTCQRVSGYYFGMDVWGQGTLVTVSS
VL: B1 VL
notes: also called STAU-229 IgG; hybridoma IgG
Q: Does B2 bind [1]?
A: binds

B3: STAU-399 clonal variant 6 (recombinant mAb) (antibody, V domains shown)
VH: HVQLVQSGAEVKKPGSSLKVSCKGSGGKLRGYGFSWGRQAPGQGLEWMGVIIPIFGAPTYAQKFQGRVTLAADESNNTVFMELSSLRSEDTAVYYCARDWPSITVAVDATNYGMDVWGQGTTVTVSS
VL: QSALTQPRSVSGSPGQSVTISCTGTSNDVGYYDHVSWYQQHPGKAPKFIIYDVSKRPSGVPDRFSGSKSDNTASLTISGLQAEDEADYYCCSFAGSYTYVFGTGTKVTVL
notes: as for B1
Q: With B3 as the binder, how does the “fold lower affinity than the hybridoma IgG” value [1] read?
A: 27 fold

Q: What about the “fold lower EC50 value than the hybridoma IgG” value [2] of the same binder?
A: 18 fold

B4: STAU-399 mAb (hybridoma IgG) (antibody, V domains shown)
VH: B3 VH with H1Q, G24V, K28N, G31S, F34I, G37V, A57T, E74D, T78I, T122L
VL: B3 VL
notes: also called STAU-399 IgG
Q: Does B4 bind [1]?
A: binds

B5: STAU-281 mAb (IgG) (antibody, V domains shown)
VH: QVQLVQSGAEVKRPGSSVRVSCKDSGDSFRRYVINWVRQAPGQGLEWMGGIIPIFDKAKSVQKFQDRLTITADESTSTSYMELSSLTSEDTAVYYCARKEDGRRDDVFDIWGQGTLVTVSS
VL: EIVMTQSPATLSVSLGERATLSCRASHSVGSSLAWYQQKPGLAPRLLIYGVSTRATGIPARFSGSGSATEFTLTISSLQSEDLAAYHCQQYDNWPFTFGQGTKLEIK
Q: Does B5 bind [1]?
A: binds

B6: STAU-307 clonal variant 1 (antibody, V domains shown)
VH: QAQLMQSGAEVKKTGSSVKVSCTASGGTFNTNDLMWVRQAPGQGLEWMGGIVPVFGKPKYAKKFHGRLIITADEYMTTVYMELTSLTFDDTAIYFCARSGSTESPIQDIDFWGQGTQVTVSS
VL: SYVLTQPPSVSVAPGQTATITCGGDNIATFSVHWYRQKPGQAPVLVVYDDLDRASGIPARFSGSNSGNTATLTISRVEPGDEADYFCQVWEISSDEYVFGPGTSVTVL
notes: also called Variant 1 (STAU-307)
Q: Does B6 bind [1]?
A: binds
